Reference: patent US20080227085A1, “Methods and Systems for the Identification of Rna Regulatory Sequences and Compounds that Modulate their Function” (priority 2003, published 2008)

Test system: general translation (reporter mRNA encoding firefly luciferase)
Experiment: Inhibition of reporter mRNA translation by HCV-IRES RNA fragments in in vitro translation system (RRL, firefly luciferase)
Type: biochemical, rabbit
Details: RNA fragments preincubated with in vitro translation system before Fy Luc reporter mRNA; FIG. 3
Protocol: FIG. 3. […] An in vitro translation system was preincubated with the RNA fragments before addition of the reporter mRNA construct encoding firefly luciferase (Fy Luc). The inhibitory effects of each of the fragments on general translation were determined by monitoring luciferase activity upon addition of substrate. […] Domain I not analyzed due to lack of any predicted secondary structure.
The plasmid pGEM3-HCV2b-IRES contains sequence coding for nucleotides 18 to 356 (SEQ ID NO: 1) of HCV-IRES RNA (genotype 2b) inserted at the BamHI restriction endonuclease site of the cloning vector pGEM-3 (Promega Corp., Madison, Wis.; FIG. 2A). RNA secondary structure prediction algorithms, as well as biochemical and genetic data, support a representation of this sequence as shown in FIG. 2B. […]
Translation reactions were performed in vitro to determine the inhibitory effect of HCV IRESIII RNA and fragments thereof and contained (20 μl): 4 μl pre-treated RRL, 4 μl 5× Reaction Buffer A, 5 μl of HCV IRES RNA (1 μM in 20% B), 5 μl mRNA ([…]), and 2 μl 10% DMSO. […] Translation reaction was stopped and Luciferase activity was measured using ViewLux™ (Perkin-Elmer Scientific Instruments, Boston, Mass.; detector set at 10 sec measurement and 6× binning; FIG. 3) upon the addition of 50 μl LucLite-Plus™ luciferase assay reagent (Promega Corp., Madison, Wis.). […]

B1: domain III: domain III RNA fragment of the HCV-IRES UTR (SEQ ID NO: 26), minimal RNA element required for efficient translation inhibition (nucleic acid)
chain: GGCCCCCCCCUCCCGGGAGAGCCAUAGUGGUCUGCGGAACCGGUGAGUACACCGGAAUUACCGGAAAGACUGGGUCCUUUCUUGGAUAAACCCACUCUAUGUCCGGUCAUUUGGGCGUGCCCCCGCAAGACUGCUAGCCGAGUAGCGUUGGGUUGCGAAAGGCCUUGUGGUACUGCCUGAUAGGGUGCUUGCGAGUGCCCCGGGAGGUCUCGUA
modifications: Hepatitis C virus; domain III of HCV-UTR RNA
  inhibition of translation of the reporter (luciferase activity): majority of inhibitory activity resides in domain III
